From PMC9922296, “Mechanistic insights into RNA surveillance by the canonical poly(A) polymerase Pla1 of the MTREC complex” (Nature Communications, 2023)

Experiments:
[1] = target: T1, Pla1EEE: Pla1RRM with K544/K545/R546 changed to EEE (S. pombe, UniProt Q10295 352-566, K544/K545/R546 to EEE); assay: ITC; MicroCal PEAQ-ITC, 25 °C, 20 mM HEPES pH 7.5, 150 mM NaCl, 2 mM BME; 40-50 µM protein in the cell, 400-500 µM ligand in the syringe; one-binding site model; conditions: both partners purified
T1 construct: canonical poly(A) polymerase Pla1, S. pombe, RRM domain, residues 352-566 with K544/K545/R546 to EEE; source: E. coli BL21 (DE3) Rosetta2, purified; not shown: His6, N-terminal, cleaved
T1 sequence (looked up): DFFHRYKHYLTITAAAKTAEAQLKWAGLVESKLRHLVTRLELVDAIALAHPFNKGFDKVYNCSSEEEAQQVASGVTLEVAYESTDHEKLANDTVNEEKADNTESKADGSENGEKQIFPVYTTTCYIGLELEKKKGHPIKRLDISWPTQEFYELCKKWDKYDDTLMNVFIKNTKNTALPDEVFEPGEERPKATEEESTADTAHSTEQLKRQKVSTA

[2] = target: T2, Pla1RRM with the charge reversal mutation K368E (S. pombe, UniProt Q10295 352-566, K368E); assay: as above; conditions: both partners purified
T2 construct: canonical poly(A) polymerase Pla1, S. pombe, RRM domain, residues 352-566 with K368E; source: E. coli BL21 (DE3) Rosetta2, purified; not shown: His6, N-terminal, cleaved
T2 sequence (looked up): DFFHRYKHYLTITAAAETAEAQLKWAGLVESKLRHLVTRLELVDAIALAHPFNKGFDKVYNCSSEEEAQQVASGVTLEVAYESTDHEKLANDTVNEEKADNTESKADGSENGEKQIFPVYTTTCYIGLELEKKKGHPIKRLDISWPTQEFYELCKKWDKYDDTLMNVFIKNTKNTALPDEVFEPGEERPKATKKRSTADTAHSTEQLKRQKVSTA

[3] = target: T3, C-terminal RRM domain of Pla1 (Pla1RRM, residues 352-566), purified (S. pombe, UniProt Q10295 352-566); assay: as above; conditions: both partners purified
T3 construct: canonical poly(A) polymerase Pla1, S. pombe, C-terminal RRM domain, residues 352-566; also called Pla1 CTD; source: E. coli BL21 (DE3) Rosetta2, purified (His-Trap, TEV cleavage, Resource Q, Superdex 200); not shown: His6, N-terminal, cleaved
T3 sequence (looked up): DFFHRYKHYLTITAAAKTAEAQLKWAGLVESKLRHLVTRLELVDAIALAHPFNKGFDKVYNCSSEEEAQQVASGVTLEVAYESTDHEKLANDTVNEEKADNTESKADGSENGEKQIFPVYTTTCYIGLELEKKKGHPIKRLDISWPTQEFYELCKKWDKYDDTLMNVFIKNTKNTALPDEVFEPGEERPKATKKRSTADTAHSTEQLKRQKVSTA

[4] = target: T4, Pla1_(EEQE): Pla1RRM with K559/R560/Q561/K562 changed to EEQE (S. pombe, UniProt Q10295 352-566, K559/R560/Q561/K562 to EEQE); assay: as above; conditions: both partners purified
T4 construct: canonical poly(A) polymerase Pla1, S. pombe, RRM domain, residues 352-566 with K559/R560/Q561/K562 to EEQE; source: E. coli BL21 (DE3) Rosetta2, purified; not shown: His6, N-terminal, cleaved
T4 sequence (looked up): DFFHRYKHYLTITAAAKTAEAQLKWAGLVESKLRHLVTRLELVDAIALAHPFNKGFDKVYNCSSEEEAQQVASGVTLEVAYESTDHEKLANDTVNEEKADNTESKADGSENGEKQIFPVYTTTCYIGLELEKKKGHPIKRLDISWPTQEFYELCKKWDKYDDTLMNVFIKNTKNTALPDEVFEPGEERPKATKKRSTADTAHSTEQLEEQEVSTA

[5] = target: T5, Pla1EEE: Pla1RRM with K544/K545/R546 changed to EEE (S. pombe, UniProt Q10295 352-566, K544/K545/R546 to EEE); assay: ITC
T5 sequence: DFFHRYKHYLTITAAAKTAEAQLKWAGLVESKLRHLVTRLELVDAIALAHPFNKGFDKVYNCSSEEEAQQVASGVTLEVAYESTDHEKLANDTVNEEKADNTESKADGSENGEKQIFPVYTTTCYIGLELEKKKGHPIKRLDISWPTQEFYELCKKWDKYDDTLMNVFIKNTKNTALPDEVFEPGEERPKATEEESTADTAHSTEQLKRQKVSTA

[6] = target: T6, Pla1_(EEQE): Pla1RRM with K559/R560/Q561/K562 changed to EEQE (S. pombe, UniProt Q10295 352-566, K559/R560/Q561/K562 to EEQE); assay: ITC
T6 sequence: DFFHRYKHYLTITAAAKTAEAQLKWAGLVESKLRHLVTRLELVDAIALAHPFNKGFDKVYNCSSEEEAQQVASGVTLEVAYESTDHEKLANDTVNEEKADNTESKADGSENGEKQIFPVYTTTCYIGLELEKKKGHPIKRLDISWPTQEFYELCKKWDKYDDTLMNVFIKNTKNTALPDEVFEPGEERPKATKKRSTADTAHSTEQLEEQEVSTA

[7] = target: T7, Pla1RRM with the charge reversal mutation K368E (S. pombe, UniProt Q10295 352-566, K368E); assay: ITC
T7 sequence: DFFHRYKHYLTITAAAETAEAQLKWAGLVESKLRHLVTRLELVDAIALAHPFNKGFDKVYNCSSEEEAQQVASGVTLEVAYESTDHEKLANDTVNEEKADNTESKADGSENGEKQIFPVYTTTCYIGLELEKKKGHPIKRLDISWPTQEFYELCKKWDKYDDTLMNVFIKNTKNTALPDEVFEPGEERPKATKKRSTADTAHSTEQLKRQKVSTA

[8] = target: T3, C-terminal RRM domain of Pla1 (Pla1RRM, …); assay: ITC; competition: Red1_(288-345) titrated into Pla1RRM pre-incubated with a 1.1-fold molar excess of Iss1_(30-76); 25 °C, 20 mM HEPES pH 7.5, 150 mM NaCl, 2 mM BME; conditions: both partners purified

fold loss in affinity against wild-type Pla1RRM [1]: ~7 fold | fold loss in affinity against wild-type Pla1RRM [2]: ~13 fold | Kd [3]: 1.4 µM | fold loss in affinity against wild-type Pla1RRM [4]: ~2 fold | Kd [5]: 9.8 µM | Kd [6]: 2.8 µM | Kd [7]: 17.8 µM | KD into the pre-formed Pla1RRM-Iss1_(30-76) complex [8]: 11 µM
B1: Red1 residues 288-345 (Pla1 interaction region), purified (domain or fragment, S. pombe, UniProt Q9UTR8 288-345, looked up)
chain: ISLPLLKQDDWLSSSKPFGSSTPNVVIEFDSDDDGDDFSNSKIEQSNLEKPPSNSENG
notes: source: E. coli BL21 (DE3), purified (His-Trap, TEV cleavage, second IMAC, Superdex 75); not shown: GB1, N-terminal, cleaved; His6, C-terminal, kept
